US8043804B2, “DBC1, a novel native inhibitor of anti-aging protein SIRT1” (The Trustees of Columbia University in the City of New York, priority 2007, dated 2011)

Experiments:
Format in all cases: biochemical
SIRT2 = target: T1, SIRT2 (Homo sapiens, UniProt Q8IXJ6); assay: In vitro deacetylation assay, acetylated tubulin as substrate of purified SIRT2; settings: nicotinamide 5 mM, increasing amounts of DBC1 (FIG. 3d)
T1 construct: made in house; host or cells: transfected mammalian cells (293 cells are named for the Flag-SIRT constructs)
T1 sequence (Q8IXJ6 1-389): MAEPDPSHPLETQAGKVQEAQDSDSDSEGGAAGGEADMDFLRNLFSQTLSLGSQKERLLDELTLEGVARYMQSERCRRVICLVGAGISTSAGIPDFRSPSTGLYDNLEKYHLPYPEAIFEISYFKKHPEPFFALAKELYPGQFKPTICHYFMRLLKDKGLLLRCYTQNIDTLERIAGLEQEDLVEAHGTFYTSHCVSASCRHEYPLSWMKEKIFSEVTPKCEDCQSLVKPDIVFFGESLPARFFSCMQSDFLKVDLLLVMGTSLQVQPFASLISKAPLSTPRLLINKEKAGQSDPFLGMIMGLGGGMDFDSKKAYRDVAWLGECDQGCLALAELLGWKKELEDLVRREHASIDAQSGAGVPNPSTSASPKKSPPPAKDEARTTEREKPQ

SIRT1 = target: T2, SIRT1 (Homo sapiens, UniProt Q96EB6); assay: In vitro deacetylation assay, acetylated p53 as substrate of purified Flag-SIRT1; settings: purified system, 50 μM NAD, dose dependent, Western blot (FIG. 3c)
T2 construct: made in house
T2 sequence (Q96EB6 1-747): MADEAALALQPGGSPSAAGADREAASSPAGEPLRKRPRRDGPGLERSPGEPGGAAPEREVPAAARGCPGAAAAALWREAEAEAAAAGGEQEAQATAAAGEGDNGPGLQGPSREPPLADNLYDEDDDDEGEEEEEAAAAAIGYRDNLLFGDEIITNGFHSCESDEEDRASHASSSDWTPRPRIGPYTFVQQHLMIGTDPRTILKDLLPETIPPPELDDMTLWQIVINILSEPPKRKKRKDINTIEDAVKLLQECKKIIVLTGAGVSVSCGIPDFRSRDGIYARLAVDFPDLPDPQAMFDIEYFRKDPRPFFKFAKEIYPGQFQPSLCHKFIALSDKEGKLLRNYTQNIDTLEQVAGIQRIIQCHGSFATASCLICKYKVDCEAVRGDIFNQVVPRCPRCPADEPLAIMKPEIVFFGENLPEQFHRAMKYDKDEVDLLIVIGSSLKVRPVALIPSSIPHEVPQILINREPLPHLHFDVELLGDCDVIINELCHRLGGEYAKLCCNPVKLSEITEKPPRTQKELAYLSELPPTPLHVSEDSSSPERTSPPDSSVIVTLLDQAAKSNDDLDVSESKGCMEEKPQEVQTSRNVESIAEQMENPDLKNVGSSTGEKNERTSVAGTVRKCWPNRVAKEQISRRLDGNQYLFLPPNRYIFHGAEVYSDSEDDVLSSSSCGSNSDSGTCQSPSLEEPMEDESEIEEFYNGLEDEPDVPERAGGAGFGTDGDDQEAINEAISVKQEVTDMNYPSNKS
Protocol: FIG. 3. DBC1 inhibits SIRT1 mediated deacetylation of p53 (a) Fractionation of immunoprecipitated F-SIRT1 complex. 293 cells were transfected with Flag-tagged SIRT1 and Flag-SIRT1 complexes were subsequently purified by M2-immunoprecipitation in FLAG-lysis buffer. Flag-SIRT1 complex was eluted in 100 ul of elution buffer and half of the elution was fractioned by size-exclusion chromatography on a Sepherose12 Column on the SMART system. 10% of each fraction was analyzed by Western Blot for DBC1 (upper panel) and SIRT1 (lower panel). (b) DBC1 inhibits SIRT1 mediated deacetylation of p53 in vitro. […] The reactions were resolved on SDS-PAGE and analyzed by Western Blot using antibodies specific for acetylated p53, total p53 (DO-1), SIRT1 and DBC1. […] The reactions were resolved on SDS-Page and analyzed by Western Blot using antibodies specific for acetylated p53, total p53, SIRT1 and DBC1. […]
Although the deacetylase activity of SIRT1 is essential for its function, it is unknown how this activity is regulated. When purified Flag-SIRT1 complexes from human cells were analyzed by gel-filtration chromatography on a Superose 12 column (SMART system), SIRT1 and DBC1 polypeptides co-eluted in fraction 15 with an apparent molecular weight of 440 KDa (lane 4, FIG. 3a). […]

HDAC1 = HDAC1 (Homo sapiens, UniProt Q13547); assay: In vitro deacetylation of p53 by purified HDAC1 complex; settings: purified HDAC1 complexes, increasing amounts of DBC1 (FIG. 9)
HDAC1, sequence (Q13547 whole entry, species assumed): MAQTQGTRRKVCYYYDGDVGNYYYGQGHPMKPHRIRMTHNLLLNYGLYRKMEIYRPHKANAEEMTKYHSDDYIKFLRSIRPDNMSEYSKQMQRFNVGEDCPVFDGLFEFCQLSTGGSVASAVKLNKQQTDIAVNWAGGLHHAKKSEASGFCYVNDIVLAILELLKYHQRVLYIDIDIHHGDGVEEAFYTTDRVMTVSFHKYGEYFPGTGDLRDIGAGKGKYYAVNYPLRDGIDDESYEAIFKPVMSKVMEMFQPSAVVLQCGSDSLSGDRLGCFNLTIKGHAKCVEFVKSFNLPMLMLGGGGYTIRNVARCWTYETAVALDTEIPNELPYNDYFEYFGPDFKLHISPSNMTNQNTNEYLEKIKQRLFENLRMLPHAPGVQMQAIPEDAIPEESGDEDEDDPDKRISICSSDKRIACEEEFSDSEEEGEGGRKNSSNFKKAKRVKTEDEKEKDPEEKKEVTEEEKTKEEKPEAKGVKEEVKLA
Protocol: FIG. 9. Effect of DBC1 on HDAC1 mediated p53 deacetylation in vitro. Purified HDAC1 complex was used to deacetylate p53 in vitro (lane 2). Increasing amounts of DBC1 were added in addition to HADC1 (lanes 3-4) to investigate whether DBC1 can inhibit p53 deacetylation by HDAC1. […] The samples were resolved by SDS-PAGE and analyzed by Western Blot using antibodies for acetylated p53, total p53 (DO-1), HDAC1 and DBC1.
Finally, p53 could also be deacetylated by purified HDAC1 complexes as previously shown (Luo, 2000) (lane 2, FIG. 9); this deacetylase activity was not repressed by DBC1 (lanes 3-4).

Row | SIRT2-mediated deacetylation of acetylated tubulin (SIRT2) | SIRT1-mediated deacetylation of acetylated p53 (SIRT1) | HDAC1-mediated deacetylation of p53 (HDAC1) | Molecule
1 | inhibited |  |  | NC(=O)c1cccnc1 [nicotinamide, reference compound]
2 | not affected | strongly repressed | not repressed | Flag-DBC1: Flag-tagged Deleted in Breast Cancer 1 protein purified by M2 immunoprecipitation under high stringency
